Assay results reported in the supplement of paper PMC10567573.

B1: ZNF263 (parent)
chain: QRTHTGEKPYKCPECGEIFAHSSN

Variants of: B1
Assay: protein stability index of a GFP-peptide fusion (GPS, HEK-293T) (PSI 1-6); higher = more stable
Conditions: c terminus: a fixed tail appended
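Note: lentivirally expressed fusions sorted by FACS into six bins by GFP to DsRed ratio, PSI derived from sequencing read proportions per bin multiplied by bin number.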

Row | Variant | protein stability index
1 | QRTHTGEKPYSCPECGEIFAHSSN [K11S] | 3.83
2 | QRTHTGEKPYMCPECGEIFAHSSN [K11M] | 2.97
3 | QRTHTGEKPYPCPECGEIFAHSSN [K11P] | 4.12
4 | QRTHTGEKPYFCPECGEIFAHSSN [K11F] | 3.23
5 | QRTHTGEKPYKCPECGEIFAHISN [S22I] | 2.52
6 | QRTHTGEKPYKCPECGEIFAHKSN [S22K] | 3.16
7 | QRTHTGEKPYKCPECGEIFAHPSN [S22P] | 2.88
8 | QRTHTGEKPYKCPECGEIFAHQSN [S22Q] | 2.81
9 | QRTHTGEKPYKCPECGEIFAHVSN [S22V] | 2.91
10 | QRTHTGEKPYKCPECGEIFAHHSN [S22H] | 3.87
11 | QRTHTGEKPYKCPECGEIFAHASN [S22A] | 2.88
12 | QRTHTGEKPYKCPECGEIFAHYSN [S22Y] | 2.71
13 | QRTHTGEKPYKCPECGETFAHSSN [I18T] | 3.9
14 | QRTHTGEKPYKCPECGEGFAHSSN [I18G] | 4.05
15 | QRTHTGEKPYKCPECGEYFAHSSN [I18Y] | 3.48
16 | QRTHTGEKPYKCPECGERFAHSSN [I18R] | 3
17 | QRTHTGEKPYKCPECGELFAHSSN [I18L] | 3.18
18 | QRTHTGEKPYKCPECGEDFAHSSN [I18D] | 3.52
19 | QRTHTGEKPYKCPECGECFAHSSN [I18C] | 3.87
20 | QRTHTGEKPYKCPECGEWFAHSSN [I18W] | 2.41
21 | QRTHTGEKPYKCPECGEKFAHSSN [I18K] | 3.83
22 | QRTHTGEKPYKCPECGEIFAHSSK [N24K] | 3.99
23 | QRTHTGEKPYKCPECGEIFAHSSA [N24A] | 3.74
24 | QRTHTGEKPYKCPECGEIFAHSSV [N24V] | 2.61

Row | Variant | protein stability index
25 | QRTHTGEKPYKCPECGEIFAHSSS [N24S] | 3.16
26 | QRTHTGEKPYKCPECGEIFAHSSL [N24L] | 2.95
27 | QRTHTGEKPYKCPEAGEIFAHSSN [C15A] | 4.3
28 | QRTHTGEKPYKCPEVGEIFAHSSN [C15V] | 4.42
29 | QRTHTGEKPYKCPEYGEIFAHSSN [C15Y] | 3.68
30 | QRTHTGEKPYKCPEEGEIFAHSSN [C15E] | 4.82
31 | QRTHTGEKPYKCPESGEIFAHSSN [C15S] | 4.29
32 | QRTHTGEKPYKCPEMGEIFAHSSN [C15M] | 4.88
33 | QRTHTGEKPYKCPECGEIFAYSSN [H21Y] | 2.86
34 | QRTHTGEKPYKCPECGEIFAVSSN [H21V] | 2.35
35 | QRTHTGEKPYKCPECGEIFANSSN [H21N] | 2.86
36 | QRTHTGEKPYKCPECGEIFATSSN [H21T] | 3.15
37 | QRTHTGEKPYKCPECGEIFAWSSN [H21W] | 1.95
38 | QRTHTGEKPYKCPECGEIFAASSN [H21A] | 2.95
39 | QRTHTGEKPYKCPECGEIFAESSN [H21E] | 3.21
40 | QRTHTGEKPYKCPECGEIFARSSN [H21R] | 3.16
41 | QRTHTGEKTYKCPECGEIFAHSSN [P9T] | 3.43
42 | QRTHTGEKCYKCPECGEIFAHSSN [P9C] | 3.53
43 | QRTHTGEKEYKCPECGEIFAHSSN [P9E] | 3.26
44 | QRTHTGEKLYKCPECGEIFAHSSN [P9L] | 3.65
45 | QRTHTGEKQYKCPECGEIFAHSSN [P9Q] | 3.25
46 | QRTHTGEKMYKCPECGEIFAHSSN [P9M] | 3.12
47 | QRTHTGEKVYKCPECGEIFAHSSN [P9V] | 3.5
48 | QRTHTGEKHYKCPECGEIFAHSSN [P9H] | 3.78

Row | Variant | protein stability index
49 | QRTHTGEKFYKCPECGEIFAHSSN [P9F] | 3.22
50 | QRTHTGEKKYKCPECGEIFAHSSN [P9K] | 3.62
51 | QRTHTGEKIYKCPECGEIFAHSSN [P9I] | 2.83
52 | QRTHTGEKPYKCPWCGEIFAHSSN [E14W] | 2.63
53 | QRTHTGEKPYKCPLCGEIFAHSSN [E14L] | 2.34
54 | QRTHTGEKPYKCPYCGEIFAHSSN [E14Y] | 2.97
55 | QRTHTGEKPYKCPCCGEIFAHSSN [E14C] | 3.71
56 | QRTHTGEKPYKCPICGEIFAHSSN [E14I] | 3.25
57 | QRTHTGEKPYKCPGCGEIFAHSSN [E14G] | 3.31
58 | QRTHTGEKPYKCPNCGEIFAHSSN [E14N] | 4.24
59 | QRTHTGEKPYKCPHCGEIFAHSSN [E14H] | 3.82
60 | QRTHTGEKPYKCPMCGEIFAHSSN [E14M] | 3.82
61 | QRTHTGEKPYKCPSCGEIFAHSSN [E14S] | 3.77
62 | QRTHTGEKPYKCPDCGEIFAHSSN [E14D] | 3.1
63 | QRTHTGEKPYKCPECGEIFDHSSN [A20D] | 3.67
64 | QRTHTGEKPYKCPECGEIFLHSSN [A20L] | 2.63
65 | QRTHTGEKPYKCPECGEIFNHSSN [A20N] | 3.55
66 | QRTHTGEKPYKCPECGEIFRHSSN [A20R] | 2.93
67 | QRTHTGEKPYKCPECGEIFCHSSN [A20C] | 3.75
68 | QRTHTGEKPYKCPECGEIFEHSSN [A20E] | 3.76
69 | QRTHTGEKPYKCPECGEIFPHSSN [A20P] | 3.53
70 | QRTHTGEKPYKCPECGEIFYHSSN [A20Y] | 3.49
71 | QRTHTEEKPYKCPECGEIFAHSSN [G6E] | 3.71
72 | QRTHTKEKPYKCPECGEIFAHSSN [G6K] | 3.18

Row | Variant | protein stability index
73 | QRTHTHEKPYKCPECGEIFAHSSN [G6H] | 3.33
74 | QRTHTAEKPYKCPECGEIFAHSSN [G6A] | 3.27
75 | QRTHTGEKPYKCPECGEIFAHSHN [S23H] | 4.71
76 | QRTHTGEKPYKCPECGEIFAHSEN [S23E] | 4.67
77 | QRTHTGEKPYKCPECGEIFAHSYN [S23Y] | 2.73
78 | QRTHTGEKPYKCPECGEIFAHSMN [S23M] | 2.81
79 | QRTHTGEKPYKCPECGEIFAHSGN [S23G] | 3.23
80 | QRTHTGEKPYKCPECGEIFAHSFN [S23F] | 2.81
81 | QRTHTGEKPYKCPECGEIFAHSDN [S23D] | 3.5
82 | QRTHTGEKPNKCPECGEIFAHSSN [Y10N] | 4.17
83 | QRTHTGEKPFKCPECGEIFAHSSN [Y10F] | 3.25
84 | QRTHTGEKPEKCPECGEIFAHSSN [Y10E] | 4.04
85 | QRTHTGEKPRKCPECGEIFAHSSN [Y10R] | 3.79
86 | QRTHTGEKPTKCPECGEIFAHSSN [Y10T] | 4.55
87 | QRTHTGEKPHKCPECGEIFAHSSN [Y10H] | 3.7
88 | QRNHTGEKPYKCPECGEIFAHSSN [T3N] | 3.79
89 | QRWHTGEKPYKCPECGEIFAHSSN [T3W] | 2.53
90 | QRHHTGEKPYKCPECGEIFAHSSN [T3H] | 3.51
91 | QRRHTGEKPYKCPECGEIFAHSSN [T3R] | 2.85
92 | QRSHTGEKPYKCPECGEIFAHSSN [T3S] | 3.43
93 | QRAHTGEKPYKCPECGEIFAHSSN [T3A] | 3.55
94 | QRCHTGEKPYKCPECGEIFAHSSN [T3C] | 3.27
